{"source": "paper PMC5720862", "about": "(Developmental cell, 2017)", "assay_in_all_cases": "pull-down", "key": {"[1]": {"molecular_target": "T1, DSK2A-MBP (Arabidopsis thaliana, UniProt Q9SII9 1-538)", "T1 sequence (looked up)": "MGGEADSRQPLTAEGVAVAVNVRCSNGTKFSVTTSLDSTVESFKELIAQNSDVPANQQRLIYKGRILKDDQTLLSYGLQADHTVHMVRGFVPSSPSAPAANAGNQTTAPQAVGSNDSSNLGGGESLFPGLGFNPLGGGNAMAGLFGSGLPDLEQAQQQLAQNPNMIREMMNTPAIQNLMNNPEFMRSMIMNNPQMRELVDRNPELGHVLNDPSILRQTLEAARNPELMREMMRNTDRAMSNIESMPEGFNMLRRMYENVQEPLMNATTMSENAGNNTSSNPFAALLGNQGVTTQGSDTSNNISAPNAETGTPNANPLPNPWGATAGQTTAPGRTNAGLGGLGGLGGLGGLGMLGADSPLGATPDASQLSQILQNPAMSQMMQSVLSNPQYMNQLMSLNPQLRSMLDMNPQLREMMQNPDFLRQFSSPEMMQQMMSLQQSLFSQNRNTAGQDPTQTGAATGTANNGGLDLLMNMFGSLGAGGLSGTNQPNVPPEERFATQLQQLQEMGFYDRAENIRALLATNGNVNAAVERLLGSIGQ"}, "[2]": {"molecular_target": "T1, DSK2A-MBP", "remark": "listed apart in the source"}, "[3]": {"molecular_target": "T2, GST-DSK2A (Arabidopsis thaliana, UniProt Q9SII9 1-538)", "T2 sequence (looked up)": "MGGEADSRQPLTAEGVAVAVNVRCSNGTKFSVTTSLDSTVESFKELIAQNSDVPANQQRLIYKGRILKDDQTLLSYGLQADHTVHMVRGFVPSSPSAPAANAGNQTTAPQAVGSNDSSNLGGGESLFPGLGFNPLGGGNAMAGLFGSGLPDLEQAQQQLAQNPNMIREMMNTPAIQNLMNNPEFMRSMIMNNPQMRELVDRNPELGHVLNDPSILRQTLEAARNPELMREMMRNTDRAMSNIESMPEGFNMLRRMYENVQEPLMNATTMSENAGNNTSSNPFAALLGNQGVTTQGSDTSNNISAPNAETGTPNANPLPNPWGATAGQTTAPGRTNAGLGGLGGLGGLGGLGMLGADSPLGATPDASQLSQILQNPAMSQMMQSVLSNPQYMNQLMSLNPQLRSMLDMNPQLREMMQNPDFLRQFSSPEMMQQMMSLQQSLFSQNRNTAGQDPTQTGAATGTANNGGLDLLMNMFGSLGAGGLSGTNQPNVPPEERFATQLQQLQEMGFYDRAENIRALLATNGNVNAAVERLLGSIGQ"}, "[4]": {"molecular_target": "T3, DSK2A-HIS (Arabidopsis thaliana, UniProt Q9SII9 1-538)", "T3 sequence (looked up)": "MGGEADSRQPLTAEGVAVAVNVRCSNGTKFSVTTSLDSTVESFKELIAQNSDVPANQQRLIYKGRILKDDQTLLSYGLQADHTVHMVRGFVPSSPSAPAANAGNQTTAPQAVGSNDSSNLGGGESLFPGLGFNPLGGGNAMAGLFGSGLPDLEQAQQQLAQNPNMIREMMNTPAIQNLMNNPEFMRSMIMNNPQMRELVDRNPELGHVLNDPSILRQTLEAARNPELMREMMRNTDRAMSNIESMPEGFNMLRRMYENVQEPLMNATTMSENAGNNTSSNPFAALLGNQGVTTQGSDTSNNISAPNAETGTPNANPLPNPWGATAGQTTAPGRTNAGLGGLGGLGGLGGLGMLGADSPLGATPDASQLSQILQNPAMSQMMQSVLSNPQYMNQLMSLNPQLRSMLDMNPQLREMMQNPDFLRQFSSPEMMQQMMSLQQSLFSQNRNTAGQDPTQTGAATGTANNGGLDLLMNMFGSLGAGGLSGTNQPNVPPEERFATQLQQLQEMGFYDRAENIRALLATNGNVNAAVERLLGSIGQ"}}, "note": "Like-named read-outs stand apart in the source and are kept apart here.", "data": [{"binder": "GST-ATG8e (natural protein, Arabidopsis thaliana, UniProt Q8S926 1-118, looked up) MNKGSIFKMDNDFEKRKAEAGRIREKYPDRIPVIVEKAEKSEVPNIDKKKYLVPSDLTVGQFVYVIRKRIKLSAEKAIFIFVDNVLPPTGELMSSVYEDKKDEDGFLYITYSGENTFG", "values": [{"measurement": "binding result", "setting": "[1]", "result": "binds"}]}, {"binder": "BIN2, recombinant, of the in vitro pull-down with DSK2 (enzyme, Arabidopsis thaliana, UniProt Q39011 1-380, looked up) MADDKEMPAAVVDGHDQVTGHIISTTIGGKNGEPKQTISYMAERVVGTGSFGIVFQAKCLETGETVAIKKVLQDRRYKNRELQLMRVMDHPNVVCLKHCFFSTTSKDELFLNLVMEYVPESLYRVLKHYSSANQRMPLVYVKLYMYQIFRGLAYIHNVAGVCHRDLKPQNLLVDPLTHQVKICDFGSAKQLVKGEANISYICSRFYRAPELIFGATEYTTSIDIWSAGCVLAELLLGQPLFPGENAVDQLVEIIKVLGTPTREEIRCMNPHYTDFRFPQIKAHPWHKIFHKRMPPEAIDFASRLLQYSPSLRCTALEACAHPFFDELREPNARLPNGRPFPPLFNFKQEVAGSSPELVNKLIPDHIKRQLGLSFLNQSGT", "values": [{"measurement": "binding result", "setting": "[2]", "result": "binds"}]}, {"binder": "SINAT2-MBP (enzyme, Arabidopsis thaliana, UniProt Q9M2P4 1-308, looked up) MAPGGSALKEVMESNSTGMDYEVKTAKVEVNNNKPTKPGSAGIGKYGIHSNNGVYELLECPVCTNLMYPPIHQCPNGHTLCSNCKLRVQNTCPTCRYELGNIRCLALEKVAESLEVPCRYQNLGCHDIFPYYSKLKHEQHCRFRPYTCPYAGSECSVTGDIPTLVVHLKDDHKVDMHDGCTFNHRYVKSNPHEVENATWMLTVFNCFGRQFCLHFEAFQLGMAPVYMAFLRFMGDENEAKKFSYSLEVGAHGRKLTWQGIPRSIRDSHRKVRDSQDGLIIPRNLALYFSGGDRQELKLRVTGRIWKEE", "values": [{"measurement": "binding result", "setting": "[3]", "result": "binds"}]}, {"binder": "phosphorylated BES1-MBP (natural protein, Arabidopsis thaliana, UniProt Q9LN63 1-335, looked up, phosphorylated in vitro by BIN2-GST (sites not given)) MTSDGATSTSAAAAAAAMATRRKPSWRERENNRRRERRRRAVAAKIYTGLRAQGNYNLPKHCDNNEVLKALCSEAGWVVEEDGTTYRKGHKPLPGDMAGSSSRATPYSSHNQSPLSSTFDSPILSYQVSPSSSSFPSPSRVGDPHNISTIFPFLRNGGIPSSLPPLRISNSAPVTPPVSSPTSRNPKPLPTWESFTKQSMSMAAKQSMTSLNYPFYAVSAPASPTHHRQFHAPATIPECDESDSSTVDSGHWISFQKFAQQQPFSASMVPTSPTFNLVKPAPQQLSPNTAAIQEIGQSSEFKFENSQVKPWEGERIHDVAMEDLELTLGNGKAHS", "values": [{"measurement": "binding result", "setting": "[4]", "result": "binds"}]}, {"binder": "GST-ATG8f (natural protein, Arabidopsis thaliana, UniProt Q8VYK7 1-117, looked up) MAKSSFKQEHDLEKRRAEAARIREKYPDRIPVIVEKAEKSDIPTIDKKKYLVPADLTVGQFVYVIRKRIKLSAEKAIFIFVDNVLPPAGALMSSVYEEKKDDDGFLYVTYSGENTFG", "values": [{"measurement": "binding result", "setting": "[1]", "result": "binds"}]}, {"binder": "GST-ATG8a (natural protein, Arabidopsis thaliana, UniProt Q8LEM4 1-117, looked up) MAKSSFKISNPLEARMSESSRIREKYPDRIPVIVEKAGQSDVPDIDKKKYLVPADLTVGQFVYVVRKRIKLGAEKAIFVFVKNTLPPTAALMSAIYEEHKDEDGFLYMTYSGENTFG", "values": [{"measurement": "binding result", "setting": "[1]", "result": "binds"}]}, {"binder": "GST-ATG8i (natural protein, Arabidopsis thaliana, UniProt Q9LRP7 1-115, looked up) MKSFKEQYTLDERLAESREIIAKYPTRIPVIAEKYCKTDLPAIEKKKFLVPRDMSVGQFIYILSARLHLSPGKALFVFVNNTLPQTAALMDSVYESYKDDDGFVYMCYSSEKTFG", "values": [{"measurement": "binding result", "setting": "[1]", "result": "binds"}]}]}
